Our source for the protein stability index values is the supplement of paper PMC10567573.

The data set in a line: protein stability index of a GFP-peptide fusion (GPS, HEK-293T) (PSI 1-6); higher = more stable. Conditions: c terminus: native.
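Also: lentivirally expressed fusion library, cells FACS-sorted into six equal-sized GFP/DsRed ratio bins, PSI computed from sequencing read fractions per bin weighted by bin number.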

For the protein CQPISFSGFGAEDDDLGGLGLGPC [POLD2 addC], for the setting “parent: NP_006221.1”, the protein stability index was found to be 2.27.

Take DGWIRVSSDNVADLHEKYSGSTPC [PSMB5 addC]: the protein stability index (parent: NP_002788.1) worked out at 2.89.

HSLRAVSTDPPHHDHHDEFCLMPC [BEX2 addC]: under “parent: NP_116010.1”, the protein stability index was found to be 3.48.

As to EQRNSRWNTVLRAVKAKTHHLEPC [TRPA1 addC], the protein stability index (parent: NP_015628.1) was found to be 4.32.

Regarding LPALFTDLYSQEITAEEAREALPC [SNF8 addC], the protein stability index (parent: NP_009172.2) stood at 3.81.
